One may read the Kd as the concentration at which binding is half-saturated. Low values mean higher affinity, high ones lower affinity. By Ki is commonly meant a dissociation constant, usually derived from enzyme kinetics or from competition with a known ligand.

In test [1] the target is DPP-IV as immobilized on the CM5 Biacore sensor (human) (UniProt P27487). Nature of the test: SPR (Biacore), DPP-IV immobilized on CM5, Diprotin A in Hepes running buffer. In general terms: SPR reads the build-up and loss of mass on a sensor chip optically.
Sequence of DPP-IV as immobilized on the CM5 Biacore sensor (human) (P27487 31-766 limits assumed): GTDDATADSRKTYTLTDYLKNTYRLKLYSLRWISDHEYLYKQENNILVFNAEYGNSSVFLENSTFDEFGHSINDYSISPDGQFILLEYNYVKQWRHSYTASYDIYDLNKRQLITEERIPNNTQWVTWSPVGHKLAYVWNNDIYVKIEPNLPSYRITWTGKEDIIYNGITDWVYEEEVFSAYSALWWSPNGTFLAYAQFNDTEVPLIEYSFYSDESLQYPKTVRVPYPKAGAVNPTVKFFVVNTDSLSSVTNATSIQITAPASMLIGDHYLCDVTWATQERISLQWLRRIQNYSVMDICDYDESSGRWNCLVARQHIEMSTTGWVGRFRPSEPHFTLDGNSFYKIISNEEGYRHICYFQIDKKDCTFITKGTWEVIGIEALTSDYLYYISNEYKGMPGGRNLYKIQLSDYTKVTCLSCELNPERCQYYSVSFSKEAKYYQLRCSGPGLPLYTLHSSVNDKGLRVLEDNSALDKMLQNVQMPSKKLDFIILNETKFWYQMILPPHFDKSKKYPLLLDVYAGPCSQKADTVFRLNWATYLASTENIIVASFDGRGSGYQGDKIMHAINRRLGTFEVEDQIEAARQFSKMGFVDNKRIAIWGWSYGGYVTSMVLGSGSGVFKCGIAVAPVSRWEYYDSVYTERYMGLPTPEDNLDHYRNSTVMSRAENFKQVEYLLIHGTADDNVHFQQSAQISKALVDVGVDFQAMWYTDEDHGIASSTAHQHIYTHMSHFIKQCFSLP
Test [2] has as its target soluble extracellular domain of human dipeptidyl peptidase IV (sDPP-IV; residues 31-766), glycosylated (human) (UniProt P27487). Nature of the test: enzyme inhibition, fluorogenic substrate Ala-Pro-7-amido-4-trifluoromethylcoumarin, assay buffer, 25° C., glycosylated sDPP-IV.

Sequence of soluble extracellular domain of human dipeptidyl peptidase IV (sDPP-IV; residues 31-766), glycosylated (human) (P27487 31-766 limits assumed): as above

Regarding Diprotin A (Ile-Pro-Ile) (peptide), in test [1], the dissociation constant Kd was found to be 3.8 µM. In test [2], the inhibition constant Ki was 4.63 µM.

The record behind these values is US20070100561A1, “Crystals of DPP-IV” (priority 2002, published 2007).
